One block for each binder: values may come before it.
Legend:
IL-1β-his-bio = molecular target: T1, IL-1β-his-bio (human, UniProt P01584 117-269, biotinylated, sites not stated); assay: ELISA, IL-1β-his-bio captured on streptavidin plate
T1 construct: also called biotinylated IL1b-His

IL-1β-hFc [1] = molecular target: T2, IL-1β-hFc (human); assay: competition ELISA, IL-1β-hFc coated, competitor IL1RI(1-332)-his at 0.04 µg/ml, anti-His detection
T2 construct: also called IL1b-TEV-hIgG1Fc

IL-1β-his [2] = molecular target: T3, IL-1β-his (human, UniProt P01584 117-269); assay: ELISA, IL-1β-his coated
T3 construct: also called IL1b-His; IL-1β-WT-His

IL-1β-hFc [3] = molecular target: T2, IL-1β-hFc; assay: competition ELISA by the method of Example 6.2, competitor IL1RI
[4] = molecular target: T4, IL1β (antigen used as analyte in Biacore) (UniProt P01584 117-269, limits assumed); assay: SPR (Biacore), antibody captured on Protein A chip, antigen as analyte
T4 construct: also called the antigen

IL-1β-hFc [5] = molecular target: T2, IL-1β-hFc; assay: competition ELISA, IL-1β-hFc coated, competitor IL1RI(1-332)-his, anti-His detection
IL-1β-his [6] = molecular target: T3, IL-1β-his; assay: BLI (Fortebio Octet Qke), antibody immobilised on AR2G sensor, IL1β-his 1.56-100 nM, 1:1 fit
IL-1β-hFc [7] = molecular target: T2, IL-1β-hFc; assay: competition ELISA: IL-1β-hFc coated, antibody titrated, IL1RI (1-332)-his as the blocked receptor (Example 12, method of Example 6.2)
IL-1β-his [8] = molecular target: T3, IL-1β-his; assay: ELISA on IL-1β-his (Example 11, method of Example 6.1); sample kept at 40 °C for 7 d; Mean, SD 0.001
IL-1β-his [9] = molecular target: T3, IL-1β-his; assay: ELISA on IL-1β-his (Example 11, method of Example 6.1); sample kept at 40 °C for 28 d; Mean, SD 0.023
IL-1β-his [10] = molecular target: T3, IL-1β-his; assay: ELISA, IL-1β-his coated, antibody titrated (Example 9, method of Example 6.1); Mean, SD 0.000; upper left table
IL-1β-his [11] = molecular target: T3, IL-1β-his; assay: ELISA, IL-1β-his coated, antibody titrated (Example 9, method of Example 6.1); Mean, SD 0.019; lower left table
IL-1β-his [12] = molecular target: T3, IL-1β-his; assay: ELISA, IL-1β-his coated, antibody titrated (Example 9, method of Example 6.1); Mean, SD 0.000; upper right table
IL-1β-his [13] = molecular target: T3, IL-1β-his; assay: ELISA, IL-1β-his coated, antibody titrated (Example 9, method of Example 6.1); Mean, SD 0.002; lower right table

EC50 (IL-1β-his-bio): 0.174 nM | EC50 (IL-1β-hFc [1]): 0.389 nM
B1: murine antibody KF021ZP4 18H11 (antibody, V domains shown)
VH: EVQLQQSGPELVKTGASVKISCKASGYLFTGYYMHWVKQSHGKSLEWIGFISCYNGDTTYNQKFKDKATFTVDTSSNTAYMQFNSLTSEDSAVYYCSRSDYYGTSDYWGQGTTLTVSS
VL: QIVLTQSPAIMSASPGEKVTITCSASSSVSYMHWFQQKPGTSPKLWIYTTSTLASGVPARFSGSGSGTSYSLTISRMEAEDAATYYCQQRIIYPPTFGGGTKLEIK
notes: Mouse monoclonal antibody from hybridoma supernatant

EC50 (IL-1β-his [2]): 0.169 nM | EC50 (IL-1β-his-bio): 0.062 nM | IC50 (IL-1β-hFc [3]): 0.03 nM | Kd [4]: 0.0616 nM | koff [4]: 0.000104 s⁻¹ | kon [4]: 1.69e+06 M⁻¹ s⁻¹ | EC50 (IL-1β-hFc [5]): 0.516 nM | Kd (IL-1β-his [6]): 0.179 nM | koff (IL-1β-his [6]): 0.000105 s⁻¹ | kon (IL-1β-his [6]): 589000 M⁻¹ s⁻¹ | EC50 (IL-1β-hFc [1]): 0.229 nM | IC50 (read off the curve) (IL-1β-hFc [7]): ~3 nM
B2: Positive control antibody PcAb (antibody, human IgG1, kappa, V domains shown)
VH: QVQLVESGGGVVQPGRSLRLSCAASGFTFSVYGMNWVRQAPGKGLEWVAIIWYDGDNQYYADSVKGRFTISRDNSKNTLYLQMNGLRAEDTAVYYCARDLRTGPFDYWGQGTLVTVSS
VL: EIVLTQSPDFQSVTPKEKVTITCRASQSIGSSLHWYQQKPDQSPKLLIKYASQSFSGVPSRFSGSGSGTDFTLTINSLEAEDAAAYYCHQSSSLPFTFGPGTKVDIKR
notes: also called KF021ZP4 PcAb; KF021ZP4 PCAb

EC50 (IL-1β-his-bio): 0.036 nM | EC50 (IL-1β-hFc [1]): 0.37 nM
B3: murine antibody KF021ZP4 9D5 (antibody, V domains shown)
VH: DVQLVESGGGLVQPGGSRKLSCAASGFTFSTFGMHWVRQAPEKGLEWVAYISSGSYTTYYADTVRGRFTISRDNPKNTLFLQMTSLRSEDTAMYYCARDDYDVSNYVMDYWGQGTSVTVSS
VL: DIVLTQSPASLAVSLGQRATISCRASESVEYYGTSLMQWYQQKPGQPPKLLIYAASNVESGVPARFTGSGSGTVFSLNIHPVEEDDIAMYFCQQSRKVPSLTFGAGTKLELK
notes: as for B1

EC50 (IL-1β-his-bio): 0.726 nM | EC50 (IL-1β-hFc [1]): 0.892 nM
B4: murine antibody KF021ZP4 19E4 (antibody, V domains shown)
VH: DVQLVESGGGLVQPGGSRKLSCAASGFTFSTFGMHWVRQAPEKGLEWVAYISSGSYTIYYADTVRGRFTISRDNPKNTLFLQMTSLRSEDTAMYYCARDDYDVSYYAMDYWGQGTSVTVSS
VL: DIVLTQSPASLAVSLGQRATISCRASESVEYYGTSLMQWYQQKPGQPPKLLIYAASNVESGVPARFSGSGSGTDFSLNIHPVEEDDIAMYFCQQSRKVPSLTFGAGTKLELK
notes: as for B1

EC50 (IL-1β-his [2]): 0.046 nM | Kd (IL-1β-his [6]): 0.142 nM | EC50 (IL-1β-his [8]): 0.076 nM | EC50 (IL-1β-his [9]): 0.133 nM | EC50 (IL-1β-his [10]): 0.051 nM | EC50 (IL-1β-his [11]): 0.074 nM | EC50 (IL-1β-his [12]): 0.051 nM | EC50 (IL-1β-his [13]): 0.051 nM
B5: humanized antibody 18H11 H1L1 (antibody, V domains shown)
VH: QVQLVQSGAEVVKPGASVKISCKASGYLFTGYYMHWVKQAPGKGLEWIGFISCYNGDTTYNQKFQGKATFTVDTSTNTAYMEFNSLTSEDTAVYYCSRSDYYGTSDYWGQGTTLTVSS
VL: EIVLTQSPATMSASPGERVTISCRASSSVSYMHWFQQKPGQAPRLWIYTTSTLATGVPARFSGSGSGTDYTLTISRMEPEDAATYYCQQRIIYPPTFGGGTKLEIKR

Reference: patent US20220064282A1 (ZEDA BIOPHARMACEUTICALS, published 2022)
